Consider three proteins from paper PMC4691284 (Developmental cell, 2015).

The data set concerns the molecule itself. Nature of the data set: AUC.

By stoichiometry N is commonly meant the number of molecules, sites or subunits per partner or assembly.

B1: FCHSD2 F-BAR domain (domain or fragment, human, UniProt O94868 8-282, looked up)
chain: VKVTQELKNIQVEQMTKLQAKHQAECDLLEDMRTFSQKKAAIEREYAQGMQKLASQYLKRDWPGVKADDRNDYRSMYPVWKSFLEGTMQVAQSRMNICENYKNFISEPARTVRSLKEQQLKRCVDQLTKIQTELQETVKDLAKGKKKYFETEQMAHAVREKADIEAKSKLSLFQSRISLQKASVKLKARRSECNSKATHARNDYLLTLAAANAHQDRYYQTDLVNIMKALDGNVYDHLKDYLIAFSRTELETCQAVQNTFQFLLENSSKVVRDYN
For the protein B1, the “stoichiometry N” value was more than 2 dimers.

B2: Gas7 F-BAR domain (domain or fragment, human, UniProt O60861 196-456, looked up)
chain: TEWSYCDYFWADKKDPQGNGTVAGFELLLQKQLKGKQMQKEMSEFIRERIKIEEDYAKNLAKLSQNSLASQEEGSLGEAWAQVKKSLADEAEVHLKFSAKLHSEVEKPLMNFRENFKKDMKKCDHHIADLRKQLASRYASVEKARKALTERQRDLEMKTQQLEIKLSNKTEEDIKKARRKSTQAGDDLMRCVDLYNQAQSKWFEEMVTTTLELERLEVERVEMIRQHLCQYTQLRHETDMFNQSTVEPVDQLLRKVDPAKD
As for B2, the “stoichiometry N” value was more than 2 dimers.

B3: FCHSD1 F-BAR domain (domain or fragment, human, UniProt Q86WN1 12-282, looked up)
chain: QEVKLRFLEQLSILQTWQQREADLLEDIRSYSKQRAAIEREYGQALQKLAGPFLKREGHRSGEMDSRGRTVFGAWRCLLDATVAGGQTRLQASDRYRDLAGGTGRSAKEQVLRKGTENLQRAQAEVLQSVRELSRSRKLYGQRERVWALAQEKAADVQARLNRSDHGIFHSRTSLQKLSTKLSAQSAQYSQQLQAARNEYLLNLVATNAHLDHYYQEELPALLKALVSELSEHLRDPLTSLSHTELEAAEVILEHAHRGEQTTSQVSWEQD
On to B3, for which the “stoichiometry N” value is more than 2 dimers.
